This passage reports binding result and koff results from US20180086832A1 (Johns Hopkins, published 2018).

The target of test [1] is T1, KRAS(WT)-HLA-A2 (human, biotinylated in the recombinant monomer (site not stated)).
T1 construct: Monomer in ELISA and off-rate assays; on pulsed T2 cells in flow cytometry and CDC; also called KRAS(WT)-HLA-A2 monomer; KRAS(WT) peptide-pulsed T2 cells
Briefly: flow cytometry, peptide-pulsed T2 cells.

In a further test the target is T2, EGFR(WT)-HLA-A3 (human).
T2 construct: also called EGFR(WT) peptide-pulsed T2A3 cells
Description: off-rate ELISA on monomer-coated strips, 22 C.

Test [2] has as its target T3, KRAS(WT)-HLA-A3 (human, biotinylated in the recombinant monomer (site not stated)).
T3 construct: Monomer in ELISA; also called KRAS(WT)-HLA-A3 monomer; KRAS(WT) control peptide on T2A3 cells
Briefly: flow cytometry, T2A3 cells pulsed with the KRAS(WT) control peptide. Background: In flow cytometry, cells or beads pass a laser one at a time.

In test [3] the target is T1, KRAS(WT)-HLA-A2. Briefly: off-rate ELISA on monomer-coated strips. (In general: An ELISA detects its analyte on a solid surface through an enzyme-linked reagent.)
In test [4] the target is T1, KRAS(WT)-HLA-A2. Description: phage ELISA after affinity maturation.
For test [5], the target named is T3, KRAS(WT)-HLA-A3. Briefly: ELISA of purified scFv on monomers, anti-Flag.
In test [6] the target is T4, ELA control peptide on HLA-A2 (human).
T4 construct: ELA-pulsed T2 cells; also called negative HLA-A2 control peptide ELA; irrelevant peptide
Description: flow cytometry, peptide-pulsed T2 cells.

For test [7], the target named is T1, KRAS(WT)-HLA-A2. Briefly: ELISA on monomers, anti-human IgG.

B1: KRAS G12V_F10 AM#1 (scFv)
scFv: DIQMTQSPSSLSASVGDRVTITCRASQDVNTAVAWYQQKPGKAPKLLIYSASFLYSGVPSRFSGSRSGTDFTLTISSLQPEDFATYYCQQYYYYPPTFGQGTKVEIKRTGGGSGGGGSGASEVQLVESGGGLVQPGGSLRLSCAASGFNINSNYIHWVRQAPGKGLEWVAYITPETGYYHYADSVKGRFTISADTSKNTAYLQMNSLRAEDTAVYYCSRNYYSAYAMDVWGQGTLVTVSS
Turning to B1, the binding result with KRAS(WT)-HLA-A2 [1] is listed as “no binding”.

B2: KRAS G12V_F10 AM#2 (scFv)
scFv: DIQMTQSPSSLSASVGDRVTITCRASQDVNTAVAWYQQKPGKAPKLLIYGASFLYSGVPSRFSGSRSGTDFTLTISSLQPEDFATYYCQQYYYYPPTFGQGTKVEIKRTGGGSGGGGSGASEVQLVESGGGLVQPGGSLRLSCAASGFYINSNYIHWVRQAPGKGLEWVAYITPETGYYHYADSVKGRFTISADTSKNTAYLQMNSLRAEDTAVYYCSRNYYSAYAMDVWGQGTLVTVSS
On to B2, for which the binding result with KRAS(WT)-HLA-A2 [1] is listed as “no binding”.

B3: KRAS G12V_F10 AM#3 (scFv)
scFv: DIQMSQSPSSLSASVGDRVTITCRTSQDANTAVAWYQQKPGKAPKLLFYSASFLFSGVPSRFSGSRSGTDFTLTISSLQPEDFATYYCQQYYYYPPTFGQGTKVEIKRTGGGSGGGGSGASEVQLVESGGGLVQPGGSLRLSCAASGFNINSNYIHWVRQAPGKGLEWVAYITPETGYYRYADSVKGRFTISADTSKNTAYLQMNSLRAEDTAVYYCSRNYYSAYAMDVWGQGTLVTVSS
As for B3, the binding result in the test with KRAS(WT)-HLA-A2 [1] is recorded as “no binding”.

B4: purified C9 scFv (scFv)
scFv: DIQMTQSPSSLSASVGDRVTITCRASQDVNTAVAWYQQKPGKAPKLLIYSASFLYSGVPSRFSGSRSGTDFTLTISSLQPEDFATYYCQQYYSYPPTFGQGTKVEIKRTGGGSGGGGSGGGASEVQLVESGGGLVQPGGSLRLSCAASGFNITSSYIHWVRQAPGKGLEWVAYISPEDGYARHADSVKGRFTISADTSKNTAYLQMNSLRAEDTAVYYCSRDDTYYYSAMDVWGQGTLVTVSS
notes: not shown: Flag and His tags
Molecule B4 displayed a dissociation rate constant (koff) with EGFR(WT)-HLA-A3 of 3e-05 s⁻¹.

B5: phage clone C9 (scFv, not shown: large carriers)
scFv: DIQMTQSPSSLSASVGDRVTITCRASQDVNTAVAWYQQKPGKAPKLLIYSASFLYSGVPSRFSGSRSGTDFTLTISSLQPEDFATYYCQQYYSYPPTFGQGTKVEIKRTGGGSGGGGSGGGASEVQLVESGGGLVQPGGSLRLSCAASGFNITSSYIHWVRQAPGKGLEWVAYISPEDGYARHADSVKGRFTISADTSKNTAYLQMNSLRAEDTAVYYCSRDDTYYYSAMDVWGQGTLVTVSS
notes: also called C9 phage
B5: the binding result in the test with KRAS(WT)-HLA-A3 [2] is reported as “no binding”.

B6: purified D10-7 scFv (scFv, not shown: small tags and cut ends)
scFv: DIQMTQSPSSLSASVGDRVTIACRASQDVNTAVAWYQQKPGKAPKLLIYSASFLYSGVPSRFSGSRSGTDFTLTISSLQPEDFATYYCQQYYYYPPTFGQGTKVEIKRTGGGSGGGGSGGGASEVQLVESGGGLVQPGGSLRLSCAASGFHINGSYIHWVRQAPGKGLKWVAYIDPETGYSRYADSVKGRFAISADMSKNTAYLQMNSLRAEDTAVYYCSRDSASDAMDVWGQGTLVTVSS
notes: conjugated to an anti-V5 antibody in the CDC assay
B6: in the test with KRAS(WT)-HLA-A2 [3], the binding result is given as “no binding”.

B7: clone D10-7 (phage, as tested by ELISA in the affinity maturation) (scFv)
scFv: DIQMTQSPSSLSASVGDRVTIACRASQDVNTAVAWYQQKPGKAPKLLIYSASFLYSGVPSRFSGSRSGTDFTLTISSLQPEDFATYYCQQYYYYPPTFGQGTKVEIKRTGGGSGGGGSGGGASEVQLVESGGGLVQPGGSLRLSCAASGFHINGSYIHWVRQAPGKGLKWVAYIDPETGYSRYADSVKGRFAISADMSKNTAYLQMNSLRAEDTAVYYCSRDSASDAMDVWGQGTLVTVSS
notes: One of eight clones from the error-prone PCR library of D10; not shown: phage display fusion partner used at AxioMx is not described
On to B7, for which the binding result with KRAS(WT)-HLA-A2 [4] is recorded as “no binding”.

B8: purified D10 scFv (scFv, not shown: small tags and cut ends)
scFv: DIQMTQSPSSLSASVGDRVTITCRASQDVNTAVAWYQQKPGKAPKLLIYSASFLYSGVPSRFSGSRSGTDFTLTISSLQPEDFATYYCQQYYYYPPTFGQGTKVEIKRTGGGSGGGGSGGGASEVQLVESGGGLVQPGGSLRLSCAASGFNINGSYIHWVRQAPGKGLEWVAYIDPETGYSRYADSVKGRFTISADTSKNTAYLQMNSLRAEDTAVYYCSRDSASDAMDVWGQGTLVTVSS
notes: Flag/His form in ELISA, AlphaScreen and off-rate assays; V5/His form in cell staining and, conjugated 2:1 to an anti-V5 mouse antibody, in the CDC assay
On to B8, for which, in the test with KRAS(WT)-HLA-A3 [5], the binding result is reported as “no binding (tested: 1 µg/mL (top of the dilution series))”.

B9: D3E6 phage (scFv)
scFv: DIQMTQSPSSLSASVGDRVTITCRASQDVNTAVAWYQQKPGKAPKLLIYSASFLYSGVPSRFSGSRSGTDFTLTISSLQPEDFATYYCQQYYYYPPTFGQGTKVEIKRTGGGSGGGGSGGGASEVQLVESGGGLVQPGGSLRLSCAASGFNISTSYIHWVRQAPGKGLEWVATIDPNDGYSRYADSVKGRFTISADTSKNTAYLQMNSLRAEDTAVYYCSRTNNTAADAMDVWGQGTLVTVSS
notes: also called EGFR T790M clone 1; not shown: myc tag, TEV cleavage site and full length M13 pIII coat protein
Regarding B9, in test [6], the binding result is given as “no binding”.

B10: D10 MANAbody (antibody, V domains shown)
VH: EVQLVESGGGLVQPGGSLRLSCAASGFNINGSYIHWVRQAPGKGLEWVAYIDPETGYSRYADSVKGRFTISADTSKNTAYLQMNSLRAEDTAVYYCSRDSASDAMDVWGQGTLVTVSS
VL: DIQMTQSPSSLSASVGDRVTITCRASQDVNTAVAWYQQKPGKAPKLLIYSASFLYSGVPSRFSGSRSGTDFTLTISSLQPEDFATYYCQQYYYYPPTFGQGTKVEIK
notes: Complete bivalent antibody made in Expi293 cells; also called full-length D10 MANAbody; D10 antibody
For the molecule B10, the binding result with KRAS(WT)-HLA-A2 [7] is listed as “no binding (tested: 1 µg/mL (top of the dilution series))”.

By koff is commonly meant a measure of how fast the partners let go of each other.
